Test results published in patent US20240325481A1 (MOREHOUSE SCHOOL OF MEDICINE, published 2024).

Target: gp120 of HIV-1NL4-3 virus (on virus particles) (HIV-1 (NL4-3))
Assay: cell-based or functional assay

B1: MoMo30 protein (hevamine A-related protein) from Momordica balsamina, purified from leaf extract (other)
chain: GGIATYWGQDTREGRLTAACATGKFQIINIGFLSTFGNGRPPQVNLTRHCSPISNGCRNVSVGVLNCRNDGVKVMLSIGGPHGSYSLSSAAEAIDLADYIWNNFLGGRSTSLRPFGDVPLDGVDFRIERGQFSHYYTMVARRLHDYGRQCSRKVYLTAAPGCRFPDKYLTELLHTGLFDYVWVRFFDDRQCQYNSVNPSGFWWSWMRWINSIPARKFYVGIPASEEAGDGYVAPEVLIKEVLPFTKKFTNYGGVMLFDLSNDVQTNYSSIISNRV
  IC50, inhibition of HIV-1NL4-3 infectivity in MAGI cell assay: 2.8 nM
